T1: MBP-NobZIP77 (Nannochloropsis oceanica, UniProt A0A8F2IEU3 1-466)
T1 sequence: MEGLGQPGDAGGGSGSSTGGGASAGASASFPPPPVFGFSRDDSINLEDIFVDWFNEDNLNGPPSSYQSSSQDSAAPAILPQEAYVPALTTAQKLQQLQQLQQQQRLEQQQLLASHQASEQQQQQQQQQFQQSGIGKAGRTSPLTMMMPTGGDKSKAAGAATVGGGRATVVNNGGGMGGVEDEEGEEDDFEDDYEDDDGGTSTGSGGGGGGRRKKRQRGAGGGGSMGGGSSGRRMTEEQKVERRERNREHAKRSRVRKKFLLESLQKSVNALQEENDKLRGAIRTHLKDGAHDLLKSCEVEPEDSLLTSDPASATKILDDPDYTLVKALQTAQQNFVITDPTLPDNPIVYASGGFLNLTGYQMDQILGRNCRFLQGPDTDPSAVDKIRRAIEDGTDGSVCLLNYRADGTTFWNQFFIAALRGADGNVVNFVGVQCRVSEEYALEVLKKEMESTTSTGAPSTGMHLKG

B1: g10411 (lipase; also written g10041) promoter probe (dsDNA)
DNA 1: TCCAACACGTCGGCCTCCCAAACGCAATTTTGAGGCATGGACGTGGAAAGGG
DNA 2: CCCTTTCCACGTCCATGCCTCAAAATTGCGTTTGGGAGGCCGACGTGTTGGA
B2: g3857 (TAG-lipase) promoter probe (dsDNA)
DNA 1: TGGGCTCGGACGCGACGCGGGCTTTGGGCTCGGACGCGACGCGGGCTT
DNA 2: AAGCCCGCGTCGCGTCCGAGCCCAAAGCCCGCGTCGCGTCCGAGCCCA
B3: g5641 (FAE) promoter probe (dsDNA)
DNA 1: TGGATTGATGGACGTGGAAGCAGCTGGATTGATGGACGTGGAAGCAGC
DNA 2: GCTGCTTCCACGTCCATCAATCCAGCTGCTTCCACGTCCATCAATCCA
B4: g2171 (PAP) promoter probe (dsDNA)
DNA 1: ACCGCTCCTTACGTGGTTAACATCACCGCTCCTTACGTGGTTAACATC
DNA 2: GATGTTAACCACGTAAGGAGCGGTGATGTTAACCACGTAAGGAGCGGT
B5: g9477 (actin) control probe (dsDNA)
DNA 1: TTCGATAAATGGGGCCGATAAGTGAGGGAAGATGATTTGAGTAAAGTA
DNA 2: TACTTTACTCAAATCATCTTCCCTCACTTATCGGCCCCATTTATCGAA
B6: g4867 (hsp70) control probe (dsDNA)
DNA 1: TGTGGGGCCTCAGATAAAGGTGCGGCACGTAGGGAGAGACATTG
DNA 2: CAATGTCTCTCCCTACGTGCCGCACCTTTATCTGAGGCCCCACA

The binders below were run against T1, MBP-NobZIP77 (assay: EMSA; shift reduced by 100-fold unlabeled promoter DNA; LightShift Chemiluminescent EMSA kit binding buffer (composition, salt and pH not stated), 30 min; light series: 5 nM probe, 25 °C, 60 min, NobZIP77 1:2 dilutions from 24 mM (so in the source); 6% native PAGE at 4 °C). Conditions: protein: recombinant; tags: MBP (pMAL-p4X); chain copies: 2; label: 5' biotin; blunt.
B1: binds. B2: binds.

These binders were tested against T1, MBP-NobZIP77 (assay: EMSA; LightShift Chemiluminescent EMSA kit binding buffer (composition, salt and pH not stated), 30 min; light series: 5 nM probe, 25 °C, 60 min, NobZIP77 1:2 dilutions from 24 mM (so in the source); 6% native PAGE at 4 °C). Conditions: protein: recombinant; tags: MBP (pMAL-p4X); chain copies: 2; label: 5' biotin; blunt.
B3: binds. B4: binds. B5: no binding. B6: no binding.

Reference: article PMC8964759, “Exploring a blue-light-sensing transcription factor to double the peak productivity of oil in Nannochloropsis oceanica”
